Results: the DeepSol protein solubility set

Assay: soluble on expression in E. coli; label from the status in PepcDB or PDB records

Sequence | soluble on expression in E. coli
MGSDKIHHHHHHMKTHIFLYPGEGIGPELFESLRAFFSLFNDKLEYHYLASFQDLSSLNKPYYVLCGPFASEQEQTDVLNPLHPLYAHTLVPHDKKGNASILALPLTQKQTTGALKDLSVIAACFDPAHKVVMVQQYQEQPQIWEDAMKAWTKLAFSNHDWKFEDANVLSFIKHSQYSKANQVVSSMEGANVLKALYASIYKSLNRAHTLIEVEDGYITMPMHGHAPDIVGMGIANPYALLMAFCRLLTVAGYEELAQQVENQIESAFYENRDQTTPDQGGVLNTEKYMAMMVECINL | not soluble
MGSDKIHHHHHHMKTLKFKLYQHKRNRHLKRIINAAGVIYNHCIALHKRYYRMWGNHLSCAKLQSHIAKLRKRNLFWQSLGSQAVQDICQRIEKAYQLFFKHNKKGVRPPGFKKVKKYKSFTLKQAGYKFLGSNRVKIGHRVYQFWKSRDIEGTVKTLTIKRTPLGELFMVVVVDNVSQAEIEVKTGKIAGFDFGLKTFLTCSDGTKIESPQFFKQSLNAIKKASRQHSKKLKSSSNRERARKNLVRKYEDISHRRRDWFWKLAHELTDKFDILCFETLNLKGMQRLWGRKISDLAFGEFLQILKWIAKKKNKLVVFIDQWYPSTKTCSGCGHVLEELDLSIREWRCPSCQSVNGRDENASKVICAVGASTVGLGDVSRYETAIAV | not soluble
MGSDKIHHHHHHMKTNYRLHMQQGSDYLKKFLEKHIDLLKKIPLFEGIKSDELEEMLECLGVVDKTYPKDSIIFSVGSEVTSIGIMLKGSAHIIKEDIEGNRNIVAELLPGDLFGEVFACTRLHKSNVTVTTTSSCEVLFIKFKSVTGICSSTCVFHNRLVENMLQLIAEKNILLHNKIELLSRKTTREKLLMYFSKQIEQTGSHQFTIPFSRNEMADFLCVDRSSMSRELGKMRDEGLLSFNKNKFEIFYFKK | not soluble
MGSDKIHHHHHHMKTRESSVGLKFRKFNRFYTNVLGFLNEHIYDSPFSLTETRILFEIYNTPNCTAKALQDKLGLDRGYVSRIVKQFEKEDLIYKQRSKDDARHHYIFVTETGKTIYKKLEEKANEQVELMLKVINQKEQHKLAEAMAEIEAILSQSLSARASEISIRDYFLSEDLQLLIEKQRQFYAEAHGWDDTFLAYLQETFDADIEKIWIAESGGKFAGSVGLVKHDEKTVQLRWFLVDADFRGRGLGTQLLEHLVAYCQDMKFDRIFLWTVSTMAEARPLYKKFGFRISEVKQEAPLWGQQLTEERWDLELS | not soluble
MGSDKIHHHHHHMKVLLYLEGKTVLEKSGIGRALQHQMEALDMAGIPYTTDLLGDYDVIHINTYGPRSWLLLHAAKRSGKKVIMHGHSTKEDFQNSFIGSNTLAPFVGKYLASMYQKADFVITPSEYSKKLIQSYGVTTPIIAVSNGIDLDKYKKDERKEAIFREHFKIEEGQPVVVCAGLYFRRKGIEDFVKVAEKMPHVRFIWLGSINKWLIPSYIRKIVEGDHPANVEFPGYFKGAVFQGAMSGADAFFFPSYEETEGIVVLEALASHQHVVLRDIPVYDGWVDENVAELGHTVDDFVDSIQKILDKQVDKREAGYQVAVSRSIDNVSHQLVDAYRQVLEM | not soluble
MGSDKIHHHHHHMKVYLVGGAVRDQLLGLPVKDRDWIVVGADPATLLSLGYQQVGKDFPVFLNPKTKEEYALARTERKSSAGYTGFICDFSPTITLEQDLIRRDLTINAMAQSEDGEIIDPYGGKQDLENRILRHISPAFSEDPLRVLRVARFAARYHSLGFKIASETLALMAELAQSGELQHLTAERIWLETEKALNEKNPEIYFETLHKTGALSVLFSEIDALYGVPNPVKHHPEVDSFIHTMLVLKQAVNLTENNPILNKSAVRFAAICHDLGKALTPQNILPHHYGHEQAGIKPTRSLCKRLKVPSYFQELAELTCEFHTHIHKAFELRAETVITLFNRFDVWRKPQRFQEFLQVCLADTRGRTGFETKDYPQIDYINQLLHAANEVDVQQVIADGFEKQAIKNELTKRRILAVKQTKTNYPTN | not soluble
MGSDKIHHHHHHMKWCSSMSDPKPCIICVAITGSVPTKAANPAVPITVAEQIESTHAAFEAGAAICHAHVRNDDETPSSDPEKFARLKEGVEGHCPGMIVQLSTGGRSGASKERGGMLPLRPDMASLSVGSNNFPTRVYENPPDLVDWLAAEMRTYDIKPEIEAFDLSHIHHAALMHQRGQLAGHPYVQFVMGVKNAMPADRETFDFYVATMTRLLPESEWCAAGIGPNQIVLNEWAIAAGGHARTGLEDNVRWDKQTLAPSNAALVERTAEICEKNGRPVATTAQAREILGLRT | not soluble
MGSDKIHHHHHHMKWTTPADLKAQVRKLWDRGLLLASLAGGEALFPRRLTLKSPDSRGLSERFPEVREWIAQLCSAAGFYRIEWRSVNHRVLGANEIPAAIWIDTLEEALGLIGKRRAADQFATLVELTRKKQPELVPWLAKRPLRALELSEDWPRLLEIVTWVLKHPRPAIYLRQIDLPGVHTKFIEGHRGVLAELLDLVLPGEAIDATHTGIGGFCRRYGFLDKPLRVRFRVLDRNIRLPAVESDQDITLTQASFASLDLPASKVFITENEINFLAFPDVPDAMVIFGAGYGFDNLAAAPWLHQRGIYYWGDIDTHGFAILNQLRGFFPHAVSFLMDLQTLLAHRSLWGVEKQPETGTLARLNSEESALYDQLRRNHWGERVRLEQERIGFGFLHDVLRRL | not soluble
MGSDKIHHHHHHMKYGIVGYSGRMGQEIQKVFSEKGHELVLKVDVNGVEELDSPDVVIDFSSPEALPKTVDLCKKYRAGLVLGTTALKEEHLQMLRELSKEVPVVQAYNFSIGINVLKRFLSELVKVLEDWDVEIVETHHRFKKDAPSGTAILLESALGKSVPIHSLRVGGVPGDHVVVFGNIGETIEIKHRAISRTVFAIGALKAAEFLVGKDPGMYSFEEVIFGGE | soluble
MGSDKIHHHHHHMLCALKHLFQGEPQQQAVSGLISTSYTDNDGETRISLKLEPRYENAGEVITKLVELDADPQVVRVGIQSSSIASFGSLENLVNAYGTLYRYLKDNYDSPAKLKKYWGYLANDVVFIQISTDVSSALKIFETINERGVGLNPMDLLKNLLFTQVGQAQFTQLKDEWKKITRPLEKGKEKPLFDHFVMQLENFLFYYIFTKTPTRDMERSFSQWANELRAIADAAECRCHNQWQGIDS | not soluble
MGSDKIHHHHHHMLDAQNVSVGYDEKTPIIQQLSFQVHKGEIFGILGPNGSGKTTLLKAVSGLLSPSEGTITLHGKAIADYHSKELAQKMAVLPQTADTAFAYKVKEVVALGRYPHQKGWLASESQEDERVIREAMEQTDTWKFRNKPLQTLSGGERQRALLARALCQEPDLLLLDEPTNHLDISHQMQLLDALKDWTRTRQLTVVAILHDLNMASLYCDRVLLLNEGRMVDLNSPRQVMTEHQLANVYETKIRRNEHPTIPRPLVTFEPAAIRSKPSSPISELEVFTSEQLIKVTSSIRWKTLSSAVLGAGFKWHQTFVNRHVSKDYYCDDVEREFQTFLSNVGVDGTDALGMMTAAILEDVAITEATYESFKVRVFVTAGISNAVDAAKAHLRKRNEATVGTINTWVFIEGTLPDAAYVQALMTATEAKGRALAEKEILDPVTGTLATGTSTDSVMIASSQTGTYFPYAGTITPLGQAIGKLVYDATIQAVTDNEKRRLER | not soluble
MGSDKIHHHHHHMLEFLSQQKPKILIIGDFMVDNYTWCDCSRISPEAPVLIAKTLKEDKRLGGAANVYANLKSLGADVFALGVVGDDESGKFLQENLKGEFLIQKGRKTPFKNRIMAHNQQVLRLDEEDISEILLENELIALFDEKIKDFKAVVLSDYAKGVLTPKVCKAVIEKAKVLNIPVLVDPKGSDFNKYSGATLLTPNKKEALEALKFENLEGENLEKGIKKLKEDFSLRYSIITLSEAGIALFDEGLKIAPAKALEVYDVTGAGDSVIAVLAFCLANEIEIFKACELANEAAAVVVSKIGSVSVSFDEIKSFKRVDFEKKIKSKEELLVLLKQNNKKIVFTNGCFDIVHFGHIKYLDKAKRLGDVLIVGLNSDASVKRLKGESRPVNSEFQRACMLAAFYFVDFVVIFDEDTPLELISFLKPDILVKGADYKDKLVVGADIVSRVELIDFEEGFSTSKIIEKIKDKK | not soluble
